This is an account of results in publication PMC7276532, “C-terminal eYFP fusion impairs Escherichia coli MinE function” (Open Biology, 2020).

One data set addresses T1, Strep-MinD^D40AΔ10 (E. coli, UniProt P0AEZ3 1-260, D40A).
T1 construct: MinD, E. coli, with D40A and lacking the last 10 amino acids; the reverse primer anneals 33 nucleotides upstream of the stop codon of minD; Cloned into the pET28a backbone without the region between NcoI and HindIII, so without the His and T7 tags; also called MinD^D40Δ10; source: E. coli Rosetta (DE3) pLysS, purified (Strep-Tactin cartridge, desalting); not shown: Strep-tag, N-terminal, kept
T1 sequence (looked up): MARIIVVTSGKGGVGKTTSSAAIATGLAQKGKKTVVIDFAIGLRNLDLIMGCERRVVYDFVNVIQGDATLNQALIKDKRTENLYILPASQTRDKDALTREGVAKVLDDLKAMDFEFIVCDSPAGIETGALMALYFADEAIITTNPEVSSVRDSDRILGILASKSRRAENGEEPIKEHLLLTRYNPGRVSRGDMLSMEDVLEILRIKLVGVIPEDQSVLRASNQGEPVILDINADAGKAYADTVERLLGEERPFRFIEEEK
As to the kind of experiment: pull-down; about 5 µM His-MinE or His-MinE-eYFP on MagneHis beads with 3 µM Strep-MinD^D40AΔ10, with ATP (1 mM), 5 mM MgCl2, 50 mM HEPES-KOH pH 7.25, 150 mM KCl, 10% glycerol, room temperature, 15 min; eluted with imidazole. The settings on record: both partners purified.

Data set [1] deals with the molecule itself. As to the kind of experiment: SEC; Superdex 200, 13 µM protein injected, 50 mM HEPES-KOH pH 7.25, 150 mM KCl, 0.1 mM EDTA, 10% glycerol, room temperature; size judged against BSA (66 kDa) and carbonic anhydrase (29 kDa). In general terms: Size exclusion chromatography separates by hydrodynamic size, large species first.

B1: His-MinE (natural protein, E. coli, UniProt P0A734 1-88, looked up)
chain: MALLDFFLSRKKNTANIAKERLQIIVAERRRSDAEPHYLPQLRKDILEVICKYVQIDPEMVTVQLEQKDGDISILELNVTLPEAEELK
notes: MinE, E. coli; the minE gene amplified from the MG1655 genome into pET28a (BamHI/HindIII); 88 amino acids; The same construct as m1, with the His-tag kept for the pull-down; source: E. coli Rosetta (DE3) pLysS, purified (IMAC nickel column, desalting); not shown: His6, N-terminal, kept
Consider B1, for which the binding result with Strep-MinD^D40AΔ10 is given as “binds”.

B2: MinE (untagged MinE; His-tag removed with thrombin) (natural protein, E. coli, UniProt P0A734 1-88, looked up)
chain: B1 chain
notes: MinE, E. coli; the minE gene amplified from the MG1655 genome into pET28a (BamHI/HindIII); 88 amino acids; Eluted as a tetramer in SEC; also called wild-type; source: E. coli Rosetta (DE3) pLysS, purified (IMAC nickel column, desalting), His-tag removed with thrombin; not shown: His6, N-terminal, cleaved
In general, stoichiometry N refers to a count of units in the complex or per binding partner. B2: the “stoichiometry N” value in data set [1] is 4.
